In the supplement of paper PMC9732359:
± gives the uncertainty stated by the source.

Assay: protein stability index of a GFP-peptide fusion (yeast GPS) (PSI 1-4); higher = more stable; sorted into four equal gates, so the index is relative within each strain
How it was run: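 The protein stability index of a peptide was calculated by multiplying its read frequency in each gate by that gate's number and adding the products. The peptides were tiled 17-residue stretches of yeast proteins, fused downstream of GFP on a Cherry-expressing plasmid and carried in yeast as a pooled library. Mid-log cultures in leucine-free medium were sorted into four equal gates by GFP/Cherry ratio, and each gate's plasmids were PCR-amplified and Illumina-sequenced.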

Row | Sequence | protein stability index (doa10∆) | protein stability index (pdr5∆) | protein stability index (san1∆) | protein stability index (ubr1∆)
1 | VKNVKNSDLEFNTFWDE [ARP9] | 3.08 ± 0.088 | 3.13 ± 0.14 | 3.53 ± 0.11 | 3.46 ± 0.084
2 | VKRIQSVPLVIGQFLEP [RPT3] | 1.58 ± 0.064 | 1.6 ± 0.063 | 2.38 ± 0.11 | 3 ± 0.094
3 | VKRLLFTIRGFKQKLNE [MTW1] | 3.04 ± 0.058 | 2.76 ± 0.048 | 2.86 ± 0.044 | 3.14 ± 0.043
4 | VKVNHNEKRYATASAIA [RPL4A] | 2.29 ± 0.1 | 2.62 ± 0.11 | 2.1 ± 0.12 | 2.18 ± 0.067
5 | VLALKVEDFLERRLQTQ [RPS9A] | 2.42 ± 0.14 | 2.86 ± 0.092 | 2.63 ± 0.072 | 2.83 ± 0.076
6 | VLDIVPGSSITETEVER [SRB4] | 3.04 ± 0.13 | 2.88 ± 0.15 | 2.57 ± 0.18 | 2.83 ± 0.12
7 | VLETHESGIKPYFEQKI [RPT6] | 2.33 ± 0.21 | 2.29 ± 0.28 | 2.58 ± 0.065 | 
8 | VLFAAYKVEHPFFARFK [RPB11] | 2.71 ± 0.089 | 1.87 ± 0.05 | 2.18 ± 0.067 | 2.27 ± 0.1
9 | VLIFFQMTQIMDIMEDF [SNF2] | 1.67 ± 0.083 | 1.52 ± 0.085 | 2.18 ± 0.13 | 2.42 ± 0.091
10 | VLKESIVNICDIQEEQV [PUP1] | 3.15 ± 0.22 | 3.04 ± 0.22 | 3.33 ± 0.14 | 
11 | VLLTFLQDELHKVSSQS [YCS4] | 3.54 ± 0.17 | 3.45 ± 0.2 | 2.95 ± 0.23 | 3.27 ± 0.13
12 | VLLVLPFTDRSVVRGNT [COB] | 3.11 ± 0.14 | 3.31 ± 0.15 | 3.52 ± 0.07 | 3.34 ± 0.15
13 | VLQDLRLGSKKLVEIIW [YJL039C/NUP192] | 3.25 ± 0.1 | 3.09 ± 0.16 | 3.15 ± 0.068 | 3.39 ± 0.14
14 | VLQKVIEWAEHHRDSNF [SKP1] | 3.08 ± 0.078 | 3.14 ± 0.063 | 3.04 ± 0.049 | 3.25 ± 0.062
15 | VLRLNAIPLLKVLRKFR [NUT1] | 1.98 ± 0.052 | 2.21 ± 0.054 | 2.06 ± 0.084 | 2.3 ± 0.038
16 | VLRPFLLRRLKKDVEKE [SNF2] | 2.8 ± 0.13 | 3.16 ± 0.19 |  | 3.11 ± 0.12
17 | VLRRLLAKYRDAGKIDK [RPL19A] | 3.29 ± 0.18 | 3.37 ± 0.15 |  | 3.61 ± 0.093
18 | VLSTEEILNIFKHISVK [RPO21] | 2.68 ± 0.13 | 3.44 ± 0.24 | 2.94 ± 0.12 | 1.6 ± 0.17
19 | VLVLRGTLEGHNGWVTS [ASC1] | 2.75 ± 0.15 | 2.1 ± 0.14 | 2.1 ± 0.15 | 2.76 ± 0.18
20 | VLVSSVTEANIIKLVEG [RPS12] | 2.52 ± 0.12 | 2.58 ± 0.067 | 2.67 ± 0.083 | 2.71 ± 0.072
21 | VLYHTSGAITFVNETPR [PRP8] | 2.06 ± 0.06 | 2.24 ± 0.075 | 2.43 ± 0.068 | 1.53 ± 0.04
22 | VMEYDVKFYEIFNFDQL [SRB8] | 1.97 ± 0.11 | 1.9 ± 0.12 | 1.66 ± 0.13 | 1.74 ± 0.1
23 | VMSSDDENAPVATNANA [PRE10] | 3.27 ± 0.18 | 3.42 ± 0.11 | 3.15 ± 0.13 | 2.5 ± 0.26
24 | VNAIKNEVKEWAVTLDT [DSN1] | 3.11 ± 0.13 | 2.82 ± 0.13 | 3.1 ± 0.074 | 3.33 ± 0.12
25 | VNDFSDITSDQLLQRLN [SMC3] | 2.56 ± 0.055 | 2.24 ± 0.053 | 2.41 ± 0.083 | 2.6 ± 0.04
26 | VNDKYKTCAEVIGGNSL [SMC3] | 3.06 ± 0.14 | 3.15 ± 0.16 | 3.29 ± 0.11 | 3.21 ± 0.15
